Measurements: paper PMC6408514

Columns and labels:
Experiment in all cases: SEC; SEC-HPLC, Superose 6, PBS pH 7.4, samples at 2 mg/mL; 24-mer assembly
[1] = biological target: human H-chain ferritin mutant A (Q14A/D15A/R22A) (human)
[2] = biological target: human H-chain ferritin mutant B (F81A/Q83A) (human)
[3] = biological target: human H-chain ferritin mutant C (Q14A/D15A/R22A/F81A/Q83A) (human)
[4] = biological target: human L-chain ferritin mutant D (S5T/T14Q/S22R/L81F/D116E/A119K/A123D following H-Ft numbering) (human)

## human H-chain ferritin mutant A (Q14A/D15A/R22A) (natural protein)
[1]
  stoichiometry N: 24

## human H-chain ferritin mutant B (F81A/Q83A) (natural protein)
[2]
  stoichiometry N: 24

## human H-chain ferritin mutant C (Q14A/D15A/R22A/F81A/Q83A) (natural protein)
[3]
  stoichiometry N: 24

## human L-chain ferritin mutant D (S5T/T14Q/S22R/L81F/D116E/A119K/A123D following H-Ft numbering) (natural protein)
[4]
  stoichiometry N: 24
